Measured values as given in IntAct's records for PubMed 27273569.

Target: wsb1_human WSB1 (UniProt Q9Y6I7)
Chain of UniProt Q9Y6I7 (Q9Y6I7 whole entry): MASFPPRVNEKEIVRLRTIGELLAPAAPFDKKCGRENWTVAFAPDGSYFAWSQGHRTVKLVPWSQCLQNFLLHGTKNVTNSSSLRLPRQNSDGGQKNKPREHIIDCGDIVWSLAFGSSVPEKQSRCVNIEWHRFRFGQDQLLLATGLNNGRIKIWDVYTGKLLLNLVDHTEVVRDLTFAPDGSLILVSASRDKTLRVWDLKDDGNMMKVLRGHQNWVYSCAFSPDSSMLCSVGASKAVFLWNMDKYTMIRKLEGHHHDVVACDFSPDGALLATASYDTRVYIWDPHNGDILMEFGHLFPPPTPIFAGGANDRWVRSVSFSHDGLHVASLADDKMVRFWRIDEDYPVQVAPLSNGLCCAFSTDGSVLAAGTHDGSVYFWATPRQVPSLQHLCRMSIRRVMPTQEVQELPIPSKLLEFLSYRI

Leucine-rich repeat serine/threonine-protein kinase 2 (Homo sapiens), Q5S007 G2019S
effect of a mutation on the interaction: with no effect
